Experimental data taken from the nanobody polyreactivity screen of Harvey et al. (2022).

Assay: yeast display, Sf9 membrane polyspecificity reagent, FACS + sequencing; frameworks hold sequencing errors
Method in brief: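 Galactose induction of a Saccharomyces cerevisiae BJ5465 synthetic nanobody display library ran 36–48 hours. The cells were then stained for 1 hour at 4 °C with 10% biotinylated, detergent-solubilized Sf9 membrane reagent, pulled down on streptavidin microbeads and FACS-sorted into low and high (top ~1%) gates on expression and reagent-binding fluorescence. Labels for polyreactivity follow the gate of origin.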

| Sequence | polyreactivity (PSR sort gate) |
| --- | --- |
| QVQLEESGGGLVQAGGSLRLSCAASGIIFATYAMGWYRQAPGKDRELVAAISSGGRTYYADSVKGRFTISRDNAKNTVYLQMNSLKPEDTAVYYCAAKSGGRSSLYNYWGQGTQVNVSS | high polyreactivity |
| QVQLEESGGGLVQAGGSLRLSCAASGIIFITYAMGWYRQAPGKEREMVAAITNSGGGTYYADSVKGRFTISRDNAKNTVYLQLNSLKPEDTAVYYCAARKTAYGYRYDYWGQGTQVTVSS | high polyreactivity |
| QVQLEESGGGLVQAGGSLRLSCAASGIIFPRNAMGWYRQAPGKERELVAAITNTGSTKYADSVKGRFTISRDNAKNSVYLHMNSLKPEDTAVYYCAKELGSVPSPSLYDYWGQGTQVTVSS | low polyreactivity |
| QVQLEESGGGLVQAGGSLRLSCAASGIIFTVYAMGWYRQATGTERELVAAITSSGGRTYYADSVKGRFTISRDNAKNTVYLQMNSLKPEDTAVYYCAARLPGYVRKYDYWGQGTQVTVSS | high polyreactivity |
| QVQLEESGGGLVQAGGSLRLSCAASGIIFWYNAMGGSRQAPGKETELVAAISRGGGNTYADSVKGRFTISRDNAKNTVYLQMKSLKEVDTAVYYCAAKRSGYRFNTRWFRLPKYDYWGQGNQVTVSS | low polyreactivity |
| QVQLEESGGGLVQAGGSLRLSCAASGITLGYYAMGWYRPAPGKERELVAAITWSGTSTYYADSVKGRFTISRDNAKNTVYLQMNSLKPEDTADYYCAAGFISQYQERGYWGQGTQVTVSS | low polyreactivity |
| QVQLEESGGGLVQAGGSLRLSCAASGLIFGHNAMGWYRQAPGKERELVAAISRSGTSTYYADSVKGRFTISRDNAKNTVYLQMNSLKPEDNAVYYCAAENYYTAGGSGPIYRRVYWGQGTQVTVSS | low polyreactivity |
| QVQLEESGGGLVQAGGSLRLSCAASGLIFIVYAMGWYRQAPGKERELVAAISFSGGSTYYADSVKGRFTISRDNAKNTVYLQMNSLKPEDTAVYYCAARARYTRRGRNYDYWGQGTQVTVSS | high polyreactivity |
| QVQLEESGGGLVQAGGSLRLSCAASGLIFRYYVMGWYRQAPGKERELVAGITSSGGSTYYADSVKGRFTISRDNAKNTVYLQMNSLKPEDTAVYYCNKGGISGRDYWGQGTQVTVSS | high polyreactivity |
| QVQLEESGGGLVQAGGSLRLSCAASGLIFSAYAMGWYRQAPGKERELVAAIRTGGSTYYADSVKGRFTFSRDNAKNTVYLQMNSLKPVDTAVYYCAASQKGYFYYNVYYWGQGTQVTVSS | high polyreactivity |
| QVQLEESGGGLVQAGGSLRLSCAASGLIIRAYAMGWSRQAPGKERELVAAITSSSGSTYYADSVKGRFTISRDNGKNSVYLQMNSLNPEDTAVYYCNAYSTFGWYDYWGQGTQVTVSS | low polyreactivity |
| QVQLEESGGGLVQAGGSLRLSCAASGLISVWYVMGWYRQAPGKERELVAAIRYGGGRTYYADSVKGRFTISRDNAKNTVYLQMNSLKPEDTAVYYCNARPYRGTYGYWGQGTQVTVSS | high polyreactivity |
| QVQLEESGGGLVQAGGSLRLSCAASGLTFAQNAMGWYRQAPGKEREMVAAITSSGGRTYYADSVKGRFTISRDNANNTVYLQMNSLKPEDTAVYDCNVRYYRYGYTYGYWGQGTQVTVSS | high polyreactivity |
| QVQLEESGGGLVQAGGSLRLSCAASGNIFFVYDMGWYRQAPGKERELVAAISWSGGSTYADSVKGRFTISRDNAKNTVYLQMNSLKPEDTAVYYCAAARYAYKHAFEYWGQGTQVTVSS | low polyreactivity |
| QVQLEESGGGLVQAGGSLRLSCAASGNIFSLNGMGRYRQAPGKEREFVAAITWSVGSTYYADSVKGRFSISRDNAKKTVYLQMNSLKPEDTAVYYCAATVSDLYKNEYYYWGQGTQVTVSS | low polyreactivity |
| QVQLEESGGGLVQAGGSLRLSCAASGNIFVSYAMGWYRQAPGKERELVAAISKSGGSTYYADSVKGRFTISRDNAKNTVYLQMNSLKPEDTAVYYCAARWYNRVKYQKYNYWGQGTQVTVSS | high polyreactivity |
| QVQLEESGGGLVQAGGSLRLSCAASGNTLGPYAMGWYRQATGKERELVAAITWSGGITDYADYVKGRFTISRDNAKNTVYLQMNSLKPEDTAVYYCNSGPSLGIFQGTSVGLRYDYWGQGTQVTLSS | low polyreactivity |
| QVQLEESGGGLVQAGGSLRLSCAASGRIFGYYPMGWYRQATGKERELVAGISRSGGSTYYADSVKGRFTISRDNAKNTVFLQMISLKPEDTAVYYCAKRVSYYGRYRPYDYWGQGTQVTVSS | high polyreactivity |
| QVQLEESGGGLVQAGGSLRLSCAASGRIFPYYPMGWYRQAPGKETELVATISGGGSTYYADSVKGRFTISRDNAKNTFYLQMNSLKPEDTAVYYCSARSWLRWASTPQWYRYEYWGQGTQVTVSS | low polyreactivity |
| QVQLEESGGGLVQAGGSLRLSCAASGRIFRPNAMGWYRQAPGKERELVAAISSGGSTYYADSVKGRFTISRDNAKNTVYLQMNSLKPEDTAVYYCAARSRGYDIRYGYWGQGTQVTVSS | high polyreactivity |

| Sequence | polyreactivity (PSR sort gate) |
| --- | --- |
| QVQLEESGGGLVQAGGSLRLSCAASGRIFSSYAMGWYRQAPGKERELVAAISSSGGRTYYADSVKGRFTISRDNAKNSVYLQMNSLKPEDTAVYYCARVTTGGYEYWGQGTQVTVSS | high polyreactivity |
| QVQLEESGGGLVQAGGSLRLSCAASGRIFWWYGMGWYREAPGKERELVASITYSGVSTYYADSVKGRFTISRDNAKNTVYLQMNSLTPEDTAVYYCAADRSRYFSYKYDYWGQGTQVTVSS | high polyreactivity |
| QVQLEESGGGLVQAGGSLRLSCAASGRIFYRYAMGWYRQAPGKERELVAAISWSGGSTNYADSVRGRFTISRDNAKNTVYLQMNSLKPEDTAVYYCAAKYRSIRESATYYYWGQGTQVTVSS | high polyreactivity |
| QVQLEESGGGLVQAGGSLRLSCAASGRIHVYTMGWSRQAPGKERELVATITWSGTSTNYADSVKGRFTISRDNAKNTVYFQMNSLKPEDTAVYYCAADISGVLSVSNVRGFDYWGQGTQVTVSS | low polyreactivity |
| QVQLEESGGGLVQAGGSLRLSCAASGRNFTYNTMGWYRQAPGKERELVAAITSGGSTYYADSVKGRFTSSRDNAKNTVYLQMNSLKPEDTAVYYCAKRSWAYTDYFVSEYYWGQGTQVTVSS | high polyreactivity |
| QVQLEESGGGLVQAGGSLRLSCAASGRNFYYNAIGWYRQAPGKERELVATITRAGGTYYADSVKGRFTISRDNAKNTVYLQMNSLKPEDTAVYYCAKRHPIVDDYKGDYWGQGTQVTVSS | low polyreactivity |
| QVQLEESGGGLVQAGGSLRLSCAASGRNISRNAMGGYRQPPGKERELVAAITQSGTSTYYADSVKGRFTLSRDNAKNTVYLQMKSLIPEDTAVYYCNAYRQYRYDYWGQGSQVTVSS | low polyreactivity |
| QVQLEESGGGLVQAGGSLRLSCAASGRTFKLNAMGWYRQAPGKERELVAAISRNGGSTYYADSVKGRFTISRDNAKNTVYLQMNSLKPEDTAVYYCAAVRHGVSLAGYYWGQGTQVTVSS | high polyreactivity |
| QVQLEESGGGLVQAGGSLRLSCAASGRTFYIYVMGWYRPAPGKERELVASITKRVGGTFYADSVKGRFTISGDNAKNTVYLQMNSLKPEDTAVYYCNARARKSIRVGGYNYWGQGTQVTVSS | high polyreactivity |
| QVQLEESGGGLVQAGGSLRLSCAASGRTFYPNAMGWYRQAPGKERELVAAITRSGGRTYYADSVKGRFTISRDNAYYTVYLQMNSLKPEDSAVYYCNADLYYLYYKYEYWGQGTQVTVSS | low polyreactivity |
| QVQLEESGGGLVQAGGSLRLSCAASGSIFFSYAMGWYRQAPGKERELVAAISSGGSTYYADSVKGRFTISRDNAKNTVYLQMNSLKPEDTAVYYCAARGYRLVPVDFYYWGQGTQVTVSS | low polyreactivity |
| QVQLEESGGGLVQAGGSLRLSCAASGSIFGFYMGWDRQAPRKEREMVAAISGSGGNTYYADSVKGRFTISRDNAKNTVYLQMNSQKPEDNAVYYCAARGYVWNIGRYYWGQGTQVTVSW | high polyreactivity |
| QVQLEESGGGLVQAGGSLRLSCAASGSIFHYYTMGWYRQAPGKERELVAAITSSGGSTYYADSVKGRFTISRDNAKNTVYLQMNSLKPEDTAVYYCNKVRYRGYLYVPIYVGYNYWGQGTQVTVSS | high polyreactivity |
| QVQLEESGGGLVQAGGSLRLSCAASGSIFNRYAMGWYRQAPGKEWELVAAISRSGGRTYYADSVKGRFTISRDNAKNTVYLQMNSLKPEDTAVYYCAADKYYRQHEYDYLGQGTQVTVSS | high polyreactivity |
| QVQLEESGGGLVQAGGSLRLSCAASGSIFPHYAMRWNRQAPGKERELVAAISRSGTSTYYADSVKGRFPISRDNAKNTVYLQMNSLKPEHTAVYYCNAYQVYTRTYGYWGQGTQVTVSS | high polyreactivity |
| QVQLEESGGGLVQAGGSLRLSCAASGSIFRKYAMVSYRQAPGKERELVAAIRSSGGSTYYADSVKGRFTISRDNANNTVYLQMNSLKPEDTAVYYCAARYYRPSRYDYWGQGTQVTVSS | high polyreactivity |
| QVQLEESGGGLVQAGGSLRLSCAASGSIFRRNVMGWYRQAPGKERELVAAISWSGDRTYYADSVKGRFTISRDNAKNTVYLQMNSLKPVGTAVYYCAAANASPRRYGQYDYWGQGTQVTVSS | high polyreactivity |
| QVQLEESGGGLVQAGGSLRLSCAASGSIFSPNAMGWYRQAPGKERELVAAIDTRDGTTYYADSVKGRFTISRDNAKNTVYLQMNSLKPEDTAVYYCAADQLVGERDYWGQGTQVTVSS | low polyreactivity |
| QVQLEESGGGLVQAGGSLRLSCAASGSIFSRNAMGLYRQAPGTERELVAVITRSGSTNYADSVKGRFTISRDNAKNTVYLQKKSLTPQDTAVYYCNADQDAYYLVSIATYDYWGQGTQVTVSS | low polyreactivity |
| QVQLEESGGGLVQAGGSLRLSCAASGSIFVTNVMGWYRQAPGKERELVAVINSGGRTYYADSVKGRFTISRDNAKNTVYLQMNSLKPEDTAVYYCAKDSWSSYPSLYPEFDYWGQGTQVTVSS | low polyreactivity |
